We go through 3 molecules from article PMC6358605, “MANF antagonizes nucleotide exchange by the endoplasmic reticulum chaperone BiP” (Nature Communications, 2019).

One series concerns the target T1, BiP NBD (28–413) (Chinese hamster, UniProt G3I8R9 28-413).
T1 construct: UK2039 is named for the crystals and the MABA-ADP assay; also called UK2039; source: E. coli M15, purified (nickel chelating, tag cleavage, anion exchange, SEC); not shown: His6-Smt3, N-terminal, cleaved
The experiment in a line: BLI; sequential dipping: streptavidin biosensors loaded with biotinylated MANF, SAP or SAPLIP, dipped in BiP SBD, buffer, BiP NBD with 2 mM ATP, 2 mM ATP, BiP NBD with 2 mM ADP, 2 mM ADP; HKMT buffer. As to conditions: both partners purified. In general terms: BLI is a label-free optical method that tracks binding on a fibre tip over time.

Series [1] deals with the molecule itself. Put plainly: crystal structure; lidless BiP^V461F (apo) crystals from a co-crystallisation mix with MANF or SAP; only BiP^V461F present in the crystal; contacts between protomers of the lattice.

T1 sequence (G3I8R9 28-413): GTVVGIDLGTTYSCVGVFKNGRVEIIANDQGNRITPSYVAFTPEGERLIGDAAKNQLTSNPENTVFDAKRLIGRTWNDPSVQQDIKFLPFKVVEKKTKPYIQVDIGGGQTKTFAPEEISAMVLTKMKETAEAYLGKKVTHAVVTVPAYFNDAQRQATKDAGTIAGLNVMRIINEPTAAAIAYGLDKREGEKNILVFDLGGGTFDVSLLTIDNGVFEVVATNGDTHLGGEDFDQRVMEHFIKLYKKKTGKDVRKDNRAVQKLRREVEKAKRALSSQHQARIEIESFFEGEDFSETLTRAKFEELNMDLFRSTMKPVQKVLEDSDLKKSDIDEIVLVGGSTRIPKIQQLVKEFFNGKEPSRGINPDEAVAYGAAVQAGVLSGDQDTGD

B1: biotinylated AviTag-SAP^119–179 (domain or fragment, mouse, UniProt Q9CXI5 119-179, looked up)
chain: DKQIDLSTVDLKKLRVKELKKILDDWGEMCKGCAEKSDYIRKINELMPKYAPKAASARTDL
modifications: also: biotin on AviTag lysine (tag not in chain)
notes: C-terminal SAP (SAF-A/B, Acinus, and PIAS) domain of MANF, mouse, residues 119-179; also called SAP domain of MANF; UK2005; source: E. coli Origami B (DE3), purified (GSTrap, TEV cleavage), biotinylated in vitro with BirA; not shown: GST, N-terminal, cleaved; AviTag, N-terminal, kept
For B1, in the series with BiP NBD (28–413), the binding result was “binds”.

B2: lidless Chinese hamster BiP^V461F (28–549) (domain or fragment)
chain: not shown
notes: BiP, Chinese hamster, residues 28-549 (C-terminal alpha-helical lid truncated), V461F; also called BiP^V461F (apo); UK2121; source: E. coli M15, purified (nickel chelating, anion exchange, SEC)
Regarding B2, the binding result in series [1] was “binds”.

B3: biotinylated AviTag-MANF^22–179 (natural protein, mouse, UniProt Q9CXI5 22-179, looked up)
chain: LRPGDCEVCISYLGRFYQDLKDRDVTFSPATIEEELIKFCREARGKENRLCYYIGATDDAATKIINEVSKPLAHHIPVEKICEKLKKKDSQICELKYDKQIDLSTVDLKKLRVKELKKILDDWGEMCKGCAEKSDYIRKINELMPKYAPKAASARTDL
modifications: biotin (on the AviTag, by E. coli BirA)
notes: mesencephalic astrocyte-derived neurotrophic factor (MANF), mouse, residues 22-179; Ligand on streptavidin BLI sensors; also called mMANF; UK1987; source: E. coli Origami B (DE3), purified (GSTrap, TEV cleavage), biotinylated in vitro with BirA; not shown: GST, N-terminal, cleaved; AviTag, N-terminal, kept
For the molecule B3, the binding result with BiP NBD (28–413) is recorded as “binds”.
